Results: patent publication US20260167721A1 (ABLEXIS, published 2026)
Blank lines part the entries; values can stand above or below the binder they belong to.

Key:
[1] = target: T1, human CD3 (TCR/CD3 complex) on the cell surface (human, UniProt P07766 23-207; P09693 23-182; P04234 22-171; P20963 22-164); assay: flow cytometry, Pan-T cells, 1 ug/mL
T1 construct: whole, on cells; also called CD3 on Pan-T cells; CD3 on Jurkat WT cells

[2] = target: T1, human CD3 (TCR/CD3 complex) on the cell …; assay: flow cytometry, Pan-T cells, 10 ug/mL
[3] = target: T1, human CD3 (TCR/CD3 complex) on the cell …; assay: flow cytometry, gMFI Jurkat WT over Jurkat TCRb KO, 10 ug/mL
[4] = target: T1, human CD3 (TCR/CD3 complex) on the cell …; assay: flow cytometry, Jurkat WT cells, 1 ug/mL
[5] = target: T1, human CD3 (TCR/CD3 complex) on the cell …; assay: flow cytometry, Jurkat WT cells, 10 ug/mL
[6] = target: T1, human CD3 (TCR/CD3 complex) on the cell …; assay: flow cytometry, gMFI Jurkat WT over Jurkat TCRb KO, 1 ug/mL
[7] = target: T2, recombinant CD3 proteins (UniProt P07766 23-126); assay: Octet BLI, recombinant CD3; Full R^2 0.000*
T2 construct: elsewhere it uses human CD3 E/D and E/G heterodimers
T2 sequence (P07766 23-126): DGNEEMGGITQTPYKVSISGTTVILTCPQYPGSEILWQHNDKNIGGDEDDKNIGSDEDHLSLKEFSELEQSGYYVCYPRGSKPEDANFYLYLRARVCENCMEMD

[8] = target: T2, recombinant CD3 proteins; assay: Octet BLI, recombinant CD3; Full R^2 0.997

T1 sequence (P07766 23-207, chain 1 of 4): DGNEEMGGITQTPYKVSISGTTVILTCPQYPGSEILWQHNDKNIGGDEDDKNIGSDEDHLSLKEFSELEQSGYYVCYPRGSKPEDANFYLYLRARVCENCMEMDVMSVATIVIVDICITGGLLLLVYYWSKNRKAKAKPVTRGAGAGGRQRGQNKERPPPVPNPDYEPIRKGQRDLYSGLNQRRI
T1 sequence (P09693 23-182, chain 2 of 4): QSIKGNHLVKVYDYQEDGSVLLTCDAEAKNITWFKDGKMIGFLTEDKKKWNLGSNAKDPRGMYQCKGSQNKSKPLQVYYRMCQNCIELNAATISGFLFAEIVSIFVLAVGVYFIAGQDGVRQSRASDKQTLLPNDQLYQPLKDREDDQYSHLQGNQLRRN
T1 sequence (P04234 22-171, chain 3 of 4): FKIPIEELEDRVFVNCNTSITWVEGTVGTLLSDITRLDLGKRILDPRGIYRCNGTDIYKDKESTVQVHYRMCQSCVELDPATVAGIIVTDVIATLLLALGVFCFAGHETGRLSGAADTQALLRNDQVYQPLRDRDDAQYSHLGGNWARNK
T1 sequence (P20963 22-164, chain 4 of 4): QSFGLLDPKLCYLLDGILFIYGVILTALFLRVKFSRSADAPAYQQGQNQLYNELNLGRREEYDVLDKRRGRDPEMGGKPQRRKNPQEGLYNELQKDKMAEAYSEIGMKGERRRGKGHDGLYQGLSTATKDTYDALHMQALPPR

B1: CD3 × CD33-BspAb44 (bispecific antibody)
chain 1: EVQLVESGGGLVKPGGSLRLSCAASGFTFSRYSMNWVRQAPGKCLKWVSSISSSGSYKYYADSVKGRFTISRDNAKNSLYLQMNSLRAEDTAVYYCAREPPTLGMDYWGQGTLVTVSSGGGGSGGGGSGGGGSGGGGSNFMLTQPHSVSESPGKTVTISCTRSSGSIASNYVQWYQQRPGSSPTTVIYEDNQRPSGVPDRFSGSIDSSSNSASLTISGLKTEDEADYYCQSFDNSNRVFGCGTKLTVLDKTHTCPPCPAPEFEGGPSVFLFPPKPKDTLMISRTPEVTCVVVDVSHEDPEVKFNWYVDGVEVHNAKTKPREEQYNSTYRVVSVLTVLHQDWLNGKEYKCKVSNKALPASIEKTISKAKGQPREPQVYTLPPCREEMTKNQVSLWCLVKGFYPSDIAVEWESNGQPENNYKTTPPVLDSDGSFFLYSKLTVDKSRWQQGNVFSCSVMHEALHNHYTQKSLSLSPGK
chain 2: EVQLVQSGAEVKKPGSSVKVSCKASGYTITDSNIHWVRQAPGQSLEWIGYIYPYNGGTDYNQKFKNRATLTVDNPTNTAYMELSSLRSEDTAFYYCVNGNPWLAYWGQGTLVTVSSASTKGPSVFPLAPSSKSTSGGTAALGCLVKDYFPEPVTVSWNSGALTSGVHTFPAVLQSSGLYSLSSVVTVPSSSLGTQTYICNVNHKPSNTKVDKRVEPKSCDKTHTCPPCPAPEFEGGPSVFLFPPKPKDTLMISRTPEVTCVVVDVSHEDPEVKFNWYVDGVEVHNAKTKPREEQYNSTYRVVSVLTVLHQDWLNGKEYKCKVSNKALPASIEKTISKAKGQPREPQVCTLPPSREEMTKNQVSLSCAVKGFYPSDIAVEWESNGQPENNYKTTPPVLDSDGSFFLVSKLTVDKSRWQQGNVFSCSVMHEALHNRFTQKSLSLSPGK
chain 3: DIQLTQSPSTLSASVGDRVTITCRASESLDNYGIRFLTWFQQKPGKAPKLLMYAASNQGSGVPSRFSGSGSGTEFTLTISSLQPDDFATYYCQQTKEVPWSFGQGTKVEVKRTVAAPSVFIFPPSDEQLKSGTASVVCLLNNFYPREAKVQWKVDNALQSGNSQESVTEQDSKDSTYSLSSTLTLSKADYEKHKVYACEVTHQGLSSPVTKSFNRGEC
% Positive [1]: 99.5% | gMFI [1]: 475000 gMFI | % Positive [2]: 99.5% | gMFI [2]: 508000 gMFI | Jurkat WT/KO (Fold) [3]: 12.9 fold | gMFI [4]: 57500 gMFI | gMFI [5]: 54200 gMFI | Jurkat WT/KO (Fold) [6]: 13.1 fold

B2: CD3 × CD33-BspAb124 (bispecific antibody)
chain 1: not shown
chain 2: B1 chain 2
chain 3: B1 chain 3
Kd [7]: < 0.001 nM | koff [7]: < 1e-07 s⁻¹ | kon [7]: 12500 M⁻¹ s⁻¹

B3: CD3 × CD33-BspAb116 (bispecific antibody)
chain 1: NFMLTQPHSVSESPGKTVTISCTRSSGSIASNYVQWYQQRPGSSPTTVIYEDNQRPSGVPDRFSGSIDSSSNSASLTISGLKTEDEAYYYCQSFDSSNRVFGCGTKLTVLGGGGSGGGGSGGGGSGGGGSQVQLQESGPGLVKPSQTLSLTCTVSGGSISSGGYYWSWIRQHPGKCLEWIGYIYYSGSTYYNPSLKSRVTISVDTSKDQFSLKLSSVTAADTAVYYCARERKTSLPFDIWGQGTMVTVSSDKTHTCPPCPAPEFEGGPSVFLFPPKPKDTLMISRTPEVTCVVVDVSHEDPEVKFNWYVDGVEVHNAKTKPREEQYNSTYRVVSVLTVLHQDWLNGKEYKCKVSNKALPASIEKTISKAKGQPREPQVYTLPPCREEMTKNQVSLWCLVKGFYPSDIAVEWESNGQPENNYKTTPPVLDSDGSFFLYSKLTVDKSRWQQGNVFSCSVMHEALHNHYTQKSLSLSPGK
chain 2: B1 chain 2
chain 3: B1 chain 3
Kd [8]: 163 nM | koff [8]: 0.0168 s⁻¹ | kon [8]: 103000 M⁻¹ s⁻¹

B5: CD3 × CD33-BspAb79 (bispecific antibody)
chain 1: QVQLQESGPGLVKPSETLSLTCTVSGGSISSYYWSWIRQPAGKCLEWIGRIYASGSTYYNPSLKSRVTMSVDTSKNQFSLKLSSVTAADTAVYYCAREKRSRLYFDYWGQGTLVTVSSGGGGSGGGGSGGGGSGGGGSNFMLTQPHSVSESPGKTVTISCTRSSGSIASNYVQWYQQRPGSSPTTVIYEDNQRPSGVPDRFSGSIDSSSNSASLTISGLKTEDEGDYYCQSYDRSNRVFGCGTKLTVLDKTHTCPPCPAPEFEGGPSVFLFPPKPKDTLMISRTPEVTCVVVDVSHEDPEVKFNWYVDGVEVHNAKTKPREEQYNSTYRVVSVLTVLHQDWLNGKEYKCKVSNKALPASIEKTISKAKGQPREPQVYTLPPCREEMTKNQVSLWCLVKGFYPSDIAVEWESNGQPENNYKTTPPVLDSDGSFFLYSKLTVDKSRWQQGNVFSCSVMHEALHNHYTQKSLSLSPGK
chain 2: B1 chain 2
chain 3: B1 chain 3
Kd [8]: 456 nM | koff [8]: 0.0829 s⁻¹ | kon [8]: 182000 M⁻¹ s⁻¹

Second part, the binder after the results:

% Positive [1]: 3.4% | gMFI [1]: 2870 gMFI | % Positive [2]: 82.2% | gMFI [2]: 12200 gMFI | Jurkat WT/KO (Fold) [3]: 2.5 fold | gMFI [4]: 2260 gMFI | gMFI [5]: 5170 gMFI | Jurkat WT/KO (Fold) [6]: 1.1 fold
B4: CD3 × CD33-BspAb48 (bispecific antibody)
chain 1: QVTLKESGPGILQPSQTLSLTCSFSGFSLSTFGMGVGWIRQPSGKCLEWLAHIWWDDDKYYNPALKSRLTISKDTSKNQVFLKIANVDTADTATYYCARLGYYPYWFFDVWGTGTTVTVSSGGGGSGGGGSGGGGSGGGGSNFMLTQPHSVSESPGKTVTIACTRSSGSIASNYVQWYQQRPGSSPTTVIYEDNQRPSGVPDRFSGSIDSSSNSASLTISGLKTEDEADYYCQSYDSSNQVFGCGTKLTVLDKTHTCPPCPAPEFEGGPSVFLFPPKPKDTLMISRTPEVTCVVVDVSHEDPEVKFNWYVDGVEVHNAKTKPREEQYNSTYRVVSVLTVLHQDWLNGKEYKCKVSNKALPASIEKTISKAKGQPREPQVYTLPPCREEMTKNQVSLWCLVKGFYPSDIAVEWESNGQPENNYKTTPPVLDSDGSFFLYSKLTVDKSRWQQGNVFSCSVMHEALHNHYTQKSLSLSPGK
chain 2: B1 chain 2
chain 3: B1 chain 3

% Positive [1]: 1.2% | gMFI [1]: 1770 gMFI | % Positive [2]: 0.7% | gMFI [2]: 1680 gMFI | Jurkat WT/KO (Fold) [3]: 0.9 fold | gMFI [4]: 1650 gMFI | gMFI [5]: 1690 gMFI | Jurkat WT/KO (Fold) [6]: 0.9 fold
B6: Gemtuzumab (antibody, V domains shown)
VH: EVQLVQSGAEVKKPGSSVKVSCKASGYTITDSNIHWVRQAPGQSLEWIGYIYPYNGGTDYNQKFKNRATLTVDNPTNTAYMELSSLRSEDTAFYYCVNGNPWLAYWGQGTLVTVSS
VL: DIQLTQSPSTLSASVGDRVTITCRASESLDNYGIRFLTWFQQKPGKAPKLLMYAASNQGSGVPSRFSGSGSGTEFTLTISSLQPDDFATYYCQQTKEVPWSFGQGTKVEVKR
notes: also called anti-CD33 control
